# Measurements from patent US20230227548A1 (published 2023).
# B1: GC5B540 (antibody, V domains shown)
# VH: QVTLKESGPVLVKPTETLTLTCTVSGFSLTSYNVHWIRQPPGKALEWLAVIWAGGSTNYNSALMSRLTISKDTSKSQVVLTMTNMRAEDTATYYCARDGIRLRFAYWGQGTLVTVSS
# VL: EIVMTQSPATLSVSPGERATLSCKASQNVATHVGWYQQKPGQAPRLLIYSASYRYSGIPARFSGSGSGTEFTLTISSLQSEDFAVYYCQQYNRYPYTFGQGTKLEIK
# notes: HFA of GC5B396: GC5H240 + GC5L58; IgG4
# Biological target: T1, human GPRC5D (human, UniProt Q9NZD1 1-345)
# T1 construct: on transfected HEK293 or RBL cells, or endogenous on MM1R, H929, OPM2, LP-1, JIM3 and patient plasma cells; also called G-protein coupled receptor family C group 5 member D; hGPRC5D
# Assay: FACS, human GPRC5D cells
# T1 sequence (Q9NZD1 whole entry): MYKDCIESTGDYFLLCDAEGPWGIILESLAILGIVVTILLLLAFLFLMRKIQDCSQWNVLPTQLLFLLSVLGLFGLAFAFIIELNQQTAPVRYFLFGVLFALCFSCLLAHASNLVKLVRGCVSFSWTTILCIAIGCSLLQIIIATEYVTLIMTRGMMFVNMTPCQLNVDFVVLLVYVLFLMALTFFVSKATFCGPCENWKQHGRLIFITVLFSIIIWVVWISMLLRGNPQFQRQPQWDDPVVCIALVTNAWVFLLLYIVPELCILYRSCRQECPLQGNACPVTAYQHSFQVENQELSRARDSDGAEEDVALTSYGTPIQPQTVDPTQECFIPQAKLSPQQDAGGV
binder,measurement,value
B1,binding result,binds
